# B1: Pseudomonas aeruginosa BioH (PA0502) S66A (enzyme)
# chain: MRDHLILLPGWGLGSAPLEPLRDALHEREPHLNVLIEPLPSLDDAADWLDELDDNLPRDSWLAGWALGGMLAGELAARRGDDCRGLLTLASNPCFRVREDWPNAMPAETFEDFFEAFLLEPHLTRKRFTLLVSQGARDPRTLARQLQVALPQLEREALVAGLQLLGQLDTRAALENFRGPQLHLFAEADALVPLAAAEALLEWLPDVEVSTLAASHGLPLECPDEVAGAILRFLREGDDA
# notes: BioH (PA0502), Pseudomonas aeruginosa PAO1, catalytic triad mutant; Purification is described only for the wild type; also called BioH(S66A); source: E. coli, from pET28a::bioH(S66A), purified
# B2: Pseudomonas aeruginosa BioH (PA0502) D189A (enzyme)
# chain: MRDHLILLPGWGLGSAPLEPLRDALHEREPHLNVLIEPLPSLDDAADWLDELDDNLPRDSWLAGWSLGGMLAGELAARRGDDCRGLLTLASNPCFRVREDWPNAMPAETFEDFFEAFLLEPHLTRKRFTLLVSQGARDPRTLARQLQVALPQLEREALVAGLQLLGQLDTRAALENFRGPQLHLFAEAAALVPLAAAEALLEWLPDVEVSTLAASHGLPLECPDEVAGAILRFLREGDDA
# notes: BioH (PA0502), Pseudomonas aeruginosa PAO1, catalytic triad mutant; Purification is described only for the wild type; also called BioH(D189A); source: E. coli, from pET28a::bioH(D189A), purified
# Molecular target: the molecule itself
# Test: SEC; gel filtration on a Superdex 75 column; Streptococcus suis FakB2 (~33 kDa, known monomer) as size control
row,Protein,binding result
1,B1,binds
2,B2,binds

# — publication PMC9894557, “The opportunistic pathogen Pseudomonas aeruginosa exploits bacterial biotin synthesis pathway to benefit its infectivity” (PLOS Pathogens, 2023)
